Data published in patent US20070292907A1, “Compositions and method for regulating ubiquitin-specific processing proteases” (priority 2005, published 2007).

Tests used:
Experiment in all cases: covalent modification by UbVS (immunoblot of UbVS adducts)
full-length USP14 = target: T1, full-length USP14 (Homo sapiens, UniProt P54578); format: biochemical
T1 construct: 3.5 μM full-length USP14 or USP14-AUBL (91-494) was incubated with or without 157 nM bovine 19S complex (PA700); GST (N); made in house
T1 sequence (P54578 whole entry): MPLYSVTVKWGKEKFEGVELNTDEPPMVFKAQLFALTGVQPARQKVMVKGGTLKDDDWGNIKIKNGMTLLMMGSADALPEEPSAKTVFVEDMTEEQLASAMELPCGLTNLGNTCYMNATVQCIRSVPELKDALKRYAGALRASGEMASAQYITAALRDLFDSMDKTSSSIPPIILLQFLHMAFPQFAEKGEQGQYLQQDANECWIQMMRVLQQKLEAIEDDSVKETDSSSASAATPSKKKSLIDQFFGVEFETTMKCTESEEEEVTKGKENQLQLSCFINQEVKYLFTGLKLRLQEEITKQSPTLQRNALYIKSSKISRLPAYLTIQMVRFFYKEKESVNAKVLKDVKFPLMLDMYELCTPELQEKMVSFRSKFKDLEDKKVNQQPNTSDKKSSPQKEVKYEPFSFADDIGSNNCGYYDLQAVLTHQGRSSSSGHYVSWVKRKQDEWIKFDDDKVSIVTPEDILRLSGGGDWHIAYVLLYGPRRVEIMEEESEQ
Method: (§1) Ubiquitin vinylsulfone (UbVS) is a specific covalent inhibitor of a large subset of deubiquitinating enzymes, and thus can be used as an active site-directed probe for the detection of DUB activity (Borodovsky et al. (2001) supra). In order to examine the effect of proteasome association on the activity of USP14, the purified recombinant USP14 proteins were pre-incubated with or without the 19S RP and then assayed for covalent modification by UbVS.
(§2) UbVS was prepared as previously described (Borodovsky et al. (2001) supra). […] UbVS was then added to the sample to give approximately 1:1 stoichiometry with the 19S complex. Incubation was continued for another hour and then stopped by the addition of 2×SDS sample buffer. The reaction mixtures were resolved by 14% SDS-PAGE, transferred to nitrocellulose membrane, and the UbVS adducts were detected with mouse monoclonal anti-ubiquitin antibody (P4D1) (Santa Cruz).

USP14-ΔUBL (91-494) = target: T2, USP14-ΔUBL (91-494) (Homo sapiens, UniProt P54578); format: biochemical; conditions: both in the absence and presence of the 19S regulatory particle; FIG. 5C lanes 1 and 2
T2 construct: 3.5 μM full-length USP14 or USP14-AUBL (91-494) was incubated with or without 157 nM bovine 19S complex (PA700); GST (N); made in house
T2 sequence (P54578 91-494, stated change not applied): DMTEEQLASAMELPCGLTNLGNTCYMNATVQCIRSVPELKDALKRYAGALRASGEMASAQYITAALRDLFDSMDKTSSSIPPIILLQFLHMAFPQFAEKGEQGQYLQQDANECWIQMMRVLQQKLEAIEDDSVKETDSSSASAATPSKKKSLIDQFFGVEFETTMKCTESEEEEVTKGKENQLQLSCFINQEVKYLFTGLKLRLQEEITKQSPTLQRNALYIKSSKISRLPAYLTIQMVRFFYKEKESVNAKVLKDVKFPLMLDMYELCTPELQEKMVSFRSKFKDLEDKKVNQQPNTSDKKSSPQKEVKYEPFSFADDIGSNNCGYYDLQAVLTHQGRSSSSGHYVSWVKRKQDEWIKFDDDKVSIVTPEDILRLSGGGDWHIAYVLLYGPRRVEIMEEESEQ
Method: as §1, §2

UCH37 = target: T3, UCH37 (Bos taurus, UniProt Q9XSJ0); format: biochemical, bovine; conditions: reactions in the presence of 19S RP, relative to the USP14 adduct; FIG. 5C lanes 2 and 4
T3 construct: UCH37 was present in the reactions as a stoichiometric component of the 19S RP complex; from tissue; host or cells: bovine 19S complex (PA700), gift
T3 sequence (Q9XSJ0 1-328): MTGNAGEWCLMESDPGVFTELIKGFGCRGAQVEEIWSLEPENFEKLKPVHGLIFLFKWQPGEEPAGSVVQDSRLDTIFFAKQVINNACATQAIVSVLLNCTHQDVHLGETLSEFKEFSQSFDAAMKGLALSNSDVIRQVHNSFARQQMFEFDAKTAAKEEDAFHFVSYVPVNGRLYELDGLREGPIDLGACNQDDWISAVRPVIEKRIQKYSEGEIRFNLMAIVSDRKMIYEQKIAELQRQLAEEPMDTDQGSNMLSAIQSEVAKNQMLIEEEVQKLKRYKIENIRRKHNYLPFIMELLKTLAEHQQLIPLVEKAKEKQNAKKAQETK
T3 sequence (A1L5A6 1-407 partner): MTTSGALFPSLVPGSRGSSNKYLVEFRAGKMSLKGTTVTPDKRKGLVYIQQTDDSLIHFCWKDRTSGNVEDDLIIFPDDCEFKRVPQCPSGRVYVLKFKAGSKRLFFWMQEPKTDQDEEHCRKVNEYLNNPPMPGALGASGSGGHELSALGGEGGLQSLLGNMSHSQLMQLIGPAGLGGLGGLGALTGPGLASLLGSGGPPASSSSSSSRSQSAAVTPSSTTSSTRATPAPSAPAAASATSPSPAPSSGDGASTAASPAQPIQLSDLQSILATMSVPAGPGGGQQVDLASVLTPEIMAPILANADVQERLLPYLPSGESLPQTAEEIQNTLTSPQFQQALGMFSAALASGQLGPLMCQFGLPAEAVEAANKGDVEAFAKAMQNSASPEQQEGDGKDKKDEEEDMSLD
Method: Two factors contribute to this observation.
as §2

- USP14-UbVS complex formation (full-length USP14; full-length USP14 with 19S regulatory particle added, FIG. 5C lane 4): strong USP14-UbVS band
- activity toward UbVS (USP14-ΔUBL (91-494)): extremely low activity
- UCH37-UbVS adduct detected (UCH37): only a trace amount
Substance: Ubiquitin vinylsulfone [UbVS]
- USP14-UbVS complex formation (full-length USP14; full-length USP14 by itself, without 19S RP, FIG. 5C lane 3): no detectable USP14-UbVS complex formation
